According to article PMC7822796, “Pleiotropic function of the SQUAMOSA PROMOTER-BINDING PROTEIN-LIKE gene TaSPL14 in wheat plant architecture”:

T1: GST-TaSPL14 (UniProt A0A3B6LP29 1-396)
T1 sequence: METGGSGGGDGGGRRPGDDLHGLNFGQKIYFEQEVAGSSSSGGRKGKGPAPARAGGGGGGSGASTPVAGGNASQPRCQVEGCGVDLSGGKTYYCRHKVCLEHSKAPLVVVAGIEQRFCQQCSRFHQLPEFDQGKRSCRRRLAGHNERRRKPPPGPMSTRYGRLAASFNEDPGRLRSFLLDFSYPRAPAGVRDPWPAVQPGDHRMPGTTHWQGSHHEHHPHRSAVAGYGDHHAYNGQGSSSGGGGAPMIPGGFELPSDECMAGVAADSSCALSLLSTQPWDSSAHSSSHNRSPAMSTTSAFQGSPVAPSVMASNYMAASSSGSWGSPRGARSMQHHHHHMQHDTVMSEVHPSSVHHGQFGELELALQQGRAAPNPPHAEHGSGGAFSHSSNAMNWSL

B1: TaEIL1 promoter probe (dsDNA)
DNA 1: GCCAAAACTTTTAGTACAACTTAAGTCTTT
DNA 2: AAAGACTTAAGTTGTACTAAAAGTTTTGGC
B2: TaRAP2.11 promoter probe (dsDNA)
DNA 1: ATGACTTGATGCGGTACAATAATATTAAGC
DNA 2: GCTTAATATTATTGTACCGCATCAAGTCAT
B3: TaERF1 promoter probe (dsDNA)
DNA 1: AGAAAAGAAAAAAGTACGATCATTCCTCGT
DNA 2: ACGAGGAATGATCGTACTTTTTTCTTTTCT

These binders were tested against T1, GST-TaSPL14 (assay: EMSA; 10 mM ZnCl2, poly dI-dC; competed by unlabeled probe; EMSA: 1x binding buffer (printed as 100 mM Tris, 500 mM KCl, 10 mM DTT, pH 7.5), 10% glycerol, 0.5 mM EDTA, 10 mM ZnCl2, 50 ng/uL poly dI-dC, 20 uL, 30 min at room temperature, 6% native PAGE). Settings: protein: recombinant; tags: GST (N-terminal, pGEX6P-1); label: 5' biotin; blunt.

Binding result, binds:
B1
B2
B3
